Assay results as given in the supplement of paper PMC9112550, “Optimization of the antimicrobial peptide Bac7 by deep mutational scanning” (BMC Biology, 2022).

Each sequence was assayed on Escherichia coli TOP10 (assay: shrunken log2 fold change of peptide-encoding DNA abundance (4.5 h post-induction vs induction); higher = less antimicrobial activity (less host growth inhibition)). Settings: time post-induction: 4.5 h; library: site-saturation at positions 5, 18, 19, 20.
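Note: peptides expressed intracellularly from a pBAD plasmid library in pooled LB shake-flask culture, induced with 0.3% L-arabinose, DNA abundance read by NGS, three biological replicates, DESeq2 with apeglm shrinkage.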

Sequence | shrunken log2 fold change
RRIRNRPPRLPRPRPRPQEMPRP | -0.218
RRIRNRPPRLPRPRPRPDAAPRP | 0.45
RRIRYRPPRLPRPRPRPPTLPRP | -0.274
RRIRHRPPRLPRPRPRPTWAPRP | 0.303
RRIRQRPPRLPRPRPRPCFEPRP | 0.0423
RRIRNRPPRLPRPRPRPMYCPRP | -0.268
RRIRARPPRLPRPRPRPTAWPRP | 0.863
RRIRHRPPRLPRPRPRPMFLPRP | -0.797
RRIRWRPPRLPRPRPRPTWSPRP | 0.541
RRIRPRPPRLPRPRPRPRCGPRP | 0.282
RRIRHRPPRLPRPRPRPEIAPRP | -0.0585
RRIRCRPPRLPRPRPRPDSEPRP | 0.0197
RRIRRRPPRLPRPRPRPFYGPRP | -0.0114
RRIRQRPPRLPRPRPRPVGPPRP | 0.231
RRIRFRPPRLPRPRPRPKIWPRP | 0.106
RRIRERPPRLPRPRPRPHSWPRP | -0.183
RRIRQRPPRLPRPRPRPDFRPRP | 0.0259
RRIRFRPPRLPRPRPRPAWSPRP | 0.116
RRIRLRPPRLPRPRPRPEEIPRP | -0.012
RRIRHRPPRLPRPRPRPHFNPRP | -0.42
RRIRGRPPRLPRPRPRPHSWPRP | 0.417
RRIRVRPPRLPRPRPRPIQYPRP | 0.0111
RRIRCRPPRLPRPRPRPVLQPRP | 1.24
RRIRCRPPRLPRPRPRPIVYPRP | -0.788
RRIRKRPPRLPRPRPRPMSSPRP | 0.0811

Sequence | shrunken log2 fold change
RRIRFRPPRLPRPRPRPKTGPRP | 0.072
RRIRVRPPRLPRPRPRPRWQPRP | 0.0341
RRIRLRPPRLPRPRPRPLTPPRP | 0.62
RRIRCRPPRLPRPRPRPSLSPRP | -0.429
RRIRHRPPRLPRPRPRPFVYPRP | -0.186
RRIRCRPPRLPRPRPRPTIGPRP | -0.0746
RRIRYRPPRLPRPRPRPCCPPRP | -0.38
RRIRQRPPRLPRPRPRPDGNPRP | -0.26
RRIRLRPPRLPRPRPRPEKKPRP | -0.176
RRIRHRPPRLPRPRPRPVYTPRP | -0.206
RRIRWRPPRLPRPRPRPQICPRP | -0.0447
RRIRGRPPRLPRPRPRPDMMPRP | 0.023
RRIRARPPRLPRPRPRPGDGPRP | 0.939
RRIRQRPPRLPRPRPRPVVQPRP | -0.0933
RRIRGRPPRLPRPRPRPTTPPRP | 0.681
RRIRNRPPRLPRPRPRPNPHPRP | -0.116
RRIRRRPPRLPRPRPRPPDGPRP | 0.326
RRIRLRPPRLPRPRPRPGDAPRP | -0.127
RRIRNRPPRLPRPRPRPKIQPRP | -0.367
RRIRYRPPRLPRPRPRPVKLPRP | 0.0698
RRIRMRPPRLPRPRPRPHYWPRP | -0.121
RRIRARPPRLPRPRPRPLLRPRP | 0.103
RRIRGRPPRLPRPRPRPASNPRP | 0.375
RRIRFRPPRLPRPRPRPCSFPRP | -0.349
RRIRMRPPRLPRPRPRPKAVPRP | 0.0216

Sequence | shrunken log2 fold change
RRIRQRPPRLPRPRPRPGLYPRP | 0.224
RRIRPRPPRLPRPRPRPIENPRP | -0.414
RRIRRRPPRLPRPRPRPKYTPRP | -0.000338
RRIRARPPRLPRPRPRPRSDPRP | 0.257
RRIRQRPPRLPRPRPRPKHCPRP | 0.0753
RRIRCRPPRLPRPRPRPNLSPRP | -0.431
RRIRFRPPRLPRPRPRPHCRPRP | -0.0499
RRIRFRPPRLPRPRPRPHDWPRP | 0.0906
RRIRIRPPRLPRPRPRPYSQPRP | -0.269
RRIRIRPPRLPRPRPRPDPRPRP | 0.132
RRIRGRPPRLPRPRPRPRRPPRP | 0.756
RRIRYRPPRLPRPRPRPSHLPRP | -0.286
RRIRYRPPRLPRPRPRPDCDPRP | -0.124
RRIRDRPPRLPRPRPRPLNNPRP | -0.305
RRIRTRPPRLPRPRPRPGMVPRP | 0.279
RRIRFRPPRLPRPRPRPLFMPRP | -0.36
RRIRPRPPRLPRPRPRPCVWPRP | 0.0579
RRIRQRPPRLPRPRPRPSPCPRP | -0.0648
RRIRCRPPRLPRPRPRPCVVPRP | -0.474
RRIRCRPPRLPRPRPRPVWEPRP | 0.176
RRIRPRPPRLPRPRPRPQLIPRP | -0.108
RRIRTRPPRLPRPRPRPVYYPRP | -1.24
RRIRYRPPRLPRPRPRPWMGPRP | -0.294
RRIRCRPPRLPRPRPRPHLYPRP | 1.42
RRIRERPPRLPRPRPRPRKSPRP | -0.131

Sequence | shrunken log2 fold change
RRIRERPPRLPRPRPRPGRWPRP | 0.796
RRIRWRPPRLPRPRPRPVHNPRP | -0.152
RRIRDRPPRLPRPRPRPTVWPRP | 0.527
RRIRMRPPRLPRPRPRPVMGPRP | 0.387
RRIRKRPPRLPRPRPRPGMKPRP | 0.516
RRIRRRPPRLPRPRPRPTDGPRP | 0.0329
RRIRKRPPRLPRPRPRPNAEPRP | 0.531
RRIRFRPPRLPRPRPRPIYIPRP | -0.832
RRIRARPPRLPRPRPRPWHKPRP | 0.0323
RRIRGRPPRLPRPRPRPFITPRP | 0.0604
RRIRVRPPRLPRPRPRPPPPPRP | 1
RRIRCRPPRLPRPRPRPVVAPRP | 0.319
RRIRGRPPRLPRPRPRPWIVPRP | 0.189
RRIRYRPPRLPRPRPRPWIMPRP | -0.253
RRIRCRPPRLPRPRPRPNAFPRP | 0.0246
RRIRLRPPRLPRPRPRPDLKPRP | -0.0789
RRIRRRPPRLPRPRPRPAQNPRP | 0.398
RRIRNRPPRLPRPRPRPSSIPRP | -0.0475
RRIRERPPRLPRPRPRPYLSPRP | -0.515
RRIRMRPPRLPRPRPRPSQIPRP | -0.03
RRIRLRPPRLPRPRPRPMCQPRP | 0.0751
RRIRTRPPRLPRPRPRPFVKPRP | -0.838
RRIRFRPPRLPRPRPRPMSRPRP | 0.0534
RRIRTRPPRLPRPRPRPNFQPRP | 0.00569
RRIRQRPPRLPRPRPRPVTWPRP | -0.073

Sequence | shrunken log2 fold change
RRIRLRPPRLPRPRPRPTEIPRP | -0.15
RRIRWRPPRLPRPRPRPCQRPRP | 1.03
RRIRSRPPRLPRPRPRPSDFPRP | -0.536
RRIRPRPPRLPRPRPRPERDPRP | 0.195
RRIRIRPPRLPRPRPRPIAGPRP | -0.017
RRIRYRPPRLPRPRPRPDYSPRP | -0.245
RRIRARPPRLPRPRPRPILFPRP | -0.166
RRIRTRPPRLPRPRPRPCGLPRP | 0.165
RRIRFRPPRLPRPRPRPPVGPRP | 0.641
RRIRMRPPRLPRPRPRPRNWPRP | 0.788
RRIRFRPPRLPRPRPRPYIKPRP | -1.28
RRIRVRPPRLPRPRPRPCNQPRP | 0.0169
RRIRSRPPRLPRPRPRPWCSPRP | -0.296
RRIRCRPPRLPRPRPRPFGGPRP | 0.0285
RRIRARPPRLPRPRPRPTTIPRP | 0.0651
RRIRGRPPRLPRPRPRPILEPRP | 0.229
RRIRLRPPRLPRPRPRPVMRPRP | 0.076
RRIRSRPPRLPRPRPRPRNLPRP | -0.322
RRIRQRPPRLPRPRPRPGSCPRP | 0.192
RRIRIRPPRLPRPRPRPKNHPRP | -0.622
RRIRARPPRLPRPRPRPRHWPRP | 0.511
RRIRARPPRLPRPRPRPINAPRP | -0.256
RRIRQRPPRLPRPRPRPQCVPRP | -0.0168
RRIRTRPPRLPRPRPRPQSGPRP | 0.00577
RRIRARPPRLPRPRPRPRQDPRP | 0.34
